In PMC9017650:

Experiments:
[1] = biological target: human FcγRIIIa receptor, V158 variants (human)
[2] = biological target: recombinant human TNFα (human) (UniProt P01375); assay: SPR
Golimumab A (human) = assay: SPR; Biacore T200; anti-human Fc antibody immobilised on a CM5 chip, golimumab captured, TNFα as analyte at five concentrations (7.81–125 nM), 30 μL/min, 25°C, 1:1 Langmuir model, KD = Kd/Ka
Golimumab B (human) = assay: as above

Row | ADCC reporter gene assay, EC50 (Jurkat NFAT-luciferase cells with FcγRIIIa V158 as effector cells, CHO-K1/hmTNFα as target cells) [1] [µg/mL] | koff [2] [s⁻¹] | Substance | also measured
1 | 0.15 |  | Golimumab A (antibody) | 
2 |  | 0.000164 | Golimumab A (from UniProt P01857) | 
3 | 0.152 |  | Golimumab B (antibody) | 
4 |  | 0.000149 | Golimumab B (from UniProt P01857) | 
5 |  |  | recombinant human TNFα (from UniProt P01375 77-233) (ligand) | Kd (Golimumab A (human)): 0.0124 nM; Kd (Golimumab B (human)): 0.0106 nM
